The supplement of paper PMC11246515
± gives the standard deviation of the averaged measurements.

Assay: total protein half-life in vivo (active degradation + dilution); higher = more stable protein
[1] = E. coli NCM3722 delta-clpP delta-lon delta-hslV, growth: N-lim chemostat, doubling time 6 h
[2] = E. coli NCM3722 delta-clpP, growth: N-lim chemostat, doubling time 6 h
[3] = E. coli NCM3722 delta-hslV, growth: N-lim chemostat, doubling time 6 h
[4] = E. coli NCM3722 delta-lon, growth: N-lim chemostat, doubling time 6 h
[5] = E. coli NCM3722 delta-smpB, growth: N-lim chemostat, doubling time 6 h
[6] = wild type E. coli NCM3722, growth: C-lim chemostat, doubling time 3 h
[7] = wild type E. coli NCM3722, growth: C-lim chemostat, doubling time 6 h
[8] = wild type E. coli NCM3722, growth: C-lim chemostat, doubling time 12 h
[9] = wild type E. coli NCM3722, growth: N-lim chemostat, doubling time 6 h
[10] = wild type E. coli NCM3722, growth: N-lim chemostat, doubling time 12 h
[11] = wild type E. coli NCM3722, growth: P-lim chemostat, doubling time 6 h
[12] = wild type E. coli NCM3722, growth: P-lim chemostat, doubling time 12 h

| Sequence | total protein half-life in vivo [1] [h] | total protein half-life in vivo [2] [h] | total protein half-life in vivo [3] [h] | total protein half-life in vivo [4] [h] | total protein half-life in vivo [5] [h] | total protein half-life in vivo [6] [h] | total protein half-life in vivo [7] [h] | total protein half-life in vivo [8] [h] | total protein half-life in vivo [9] [h] | total protein half-life in vivo [10] [h] | total protein half-life in vivo [11] [h] | total protein half-life in vivo [12] [h] |
| --- | --- | --- | --- | --- | --- | --- | --- | --- | --- | --- | --- | --- |
| MDRRRFIKGSMAMAAVCGTSGIASLFSQAAFAADSDIADGQTQRFDFSILQSMAHDLAQTAWRGAPRPLPDTLATMTPQAYNSIQYDAEKSLWHNVENRQLDAQFFHMGMGFRRRVRMFSVDPATHLAREIHFRPELFKYNDAGVDTKQLEGQSDLGFAGFRVFKAPELARRDVVSFLGASYFRAVDDTYQYGLSARGLAIDTYTDSKEEFPDFTAFWFDTVKPGATTFTVYALLDSASITGAYKFTIHCEKSQVIMDVENHLYARKDIKQLGIAPMTSMFSCGTNERRMCDTIHPQIHDSDRLSMWRGNGEWICRPLNNPQKLQFNAYTDNNPKGFGLLQLDRDFSHYQDIMGWYNKRPSLWVEPRNKWGKGTIGLMEIPTTGETLDNIVCFWQPEKAVKAGDEFAFQYRLYWSAQPPVHCPLARVMATRTGMGGFSEGWAPGEHYPEKWARRFAVDFVGGDLKAAAPKGIEPVITLSSGEAKQIEILYIEPIDGYRIQFDWYPTSDSTDPVDMRMYLRCQGDAISETWLYQYFPPAPDKRQYVDDRVMS | 6.6 ± 0.085 | 6.09 ± 0.27 | 5.73 ± 0.087 | 5.99 ± 0.14 | 5.86 ± 0.28 | 3.22 ± 0.084 | 6.205 ± 0.046 | 12.5 ± 1.2 | 6.44 ± 0.42 | 12.6 ± 0.7 | 6.71 ± 0.95 | 12.628 ± 0.0049 |
| MSKHDTDTSDQHAAKRRWLNAHEEGYHKAMGNRQVQMIAIGGAIGTGLFLGAGARLQMAGPALALVYLICGLFSFFILRALGELVLHRPSSGSFVSYAREFLGEKAAYVAGWMYFINWAMTGIVDITAVALYMHYWGAFGGVPQWVFALAALTIVGTMNMIGVKWFAEMEFWFALIKVLAIVTFLVVGTVFLGSGQPLDGNTTGFHLITDNGGFFPHGLLPALVLIQGVVFAFASIEMVGTAAGECKDPQTMVPKAINSVIWRIGLFYVGSVVLLVMLLPWSAYQAGQSPFVTFFSKLGVPYIGSIMNIVVLTAALSSLNSGLYCTGRILRSMAMGGSAPSFMAKMSRQHVPYAGILATLVVYVVGVFLNYLVPSRVFEIVLNFASLGIIASWAFIIVCQMRLRKAIKEGKAADVSFKLPGAPFTSWLTLLFLLSVLVLMAFDYPNGTYTIAALPIIGILLVIGWFGVRKRVAEIHSTAPVVEEDEEKQEIVFKPETAS |  | 4.52 | 4.74 ± 0.064 | 4.87 |  | > 4 |  | 11.4 | 4.73 | 10.3 |  |  |
| MLDAQTIATVKATIPLLVETGPKLTAHFYDRMFTHNPELKEIFNMSNQRNGDQREALFNAIAAYASNIENLPALLPAVEKIAQKHTSFQIKPEQYNIVGEHLLATLDEMFSPGQEVLDAWGKAYGVLANVFINREAEIYNENASKAGGWEGTRDFRIVAKTPRSALITSFELEPVDGGAVAEYRPGQYLGVWLKPEGFPHQEIRQYSLTRKPDGKGYRIAVKREEGGQVSNWLHNHANVGDVVKLVAPAGDFFMAVADDTPVTLISAGVGQTPMLAMLDTLAKAGHTAQVNWFHAAENGDVHAFADEVKELGQSLPRFTAHTWYRQPSEADRAKGQFDSEGLMDLSKLEGAFSDPTMQFYLCGPVGFMQFTAKQLVDLGVKQENIHYECFGPHKVL | 2.41 ± 0.082 | 1.52 ± 0.25 | 1.56 ± 0.032 | 1.85 ± 0.057 | 1.75 ± 0.062 | 2.76 ± 0.13 | 3.62 ± 0.29 | 5.61 ± 0.94 | 1.79 ± 0.19 | 2.36 ± 0.053 | 4.51 ± 0.079 | 7.88 ± 1.2 |
| MGKTISIKVLFGIYLLLMAGKVFAFSCNVDGGSSIGAGTTSVYVNLDPVIQPGQNLVVDLSQHISCWNDYGGWYDTDHINLVQGSAFAGSLQSYKGSLYWNNVTYPFPLTTNTNVLDIGDKTPMPLPLKLYITPVGAAGGVVIKAGEVIARIHMYKIATLGSGNPRNFTWNIISNNNVVMPTGGCTVDSRNVTVDLPDFPGSAEIPLGVYCSSEQKLSFYLSGATTDSSRQVFANTAPDATKASGVGVTLMRNGKILATGENVSLGTVNKSKVPLGLSATYGQTGNKVSAGTVQSVIGVTFIYE |  | 5.18 ± 0.35 |  |  | 5.306 ± 0.0055 | 2.85 ± 0.12 | 3.09 | 8.385 ± 0.065 | 6.56 | 12.7 ± 0.21 |  |  |
| MNVNFFVTCIGDALKSRMARDSVLLLEKLGCRVNFPEKQGCCGQPAINSGYIKEAIPGMKNLIAALEDNDDPIISPAGSCTYAVKSYPTYLADEPEWASRAAKVAARMQDLTSFIVNKLGVVDVGASLQGRAVYHPSCSLARKLGVKDEPLTLLKNVRGLELLTFAEQDTCCGFGGTFSVKMAEISGEMVKEKVAHLMEVRPEYLIGADVSCLLNISGRLQREGQKVKVMHIAEVLMSR | 4.88 ± 0.35 | 2.8 | 3.22 ± 0.43 | 4.91 | 3.17 ± 0.06 | 3.05 ± 0.46 | 4.67 ± 0.46 | 8.01 ± 0.23 | 4.38 ± 0.39 | 6.19 ± 1.3 | 4.49 | 8.05 ± 0.092 |
| MATLFIADLHLCVEEPAITAGFLRFLAGEARKADALYILGDLFEAWIGDDDPNPLHRKMAAAIKAVSDSGVPCYFIHGNRDFLLGKRFARESGMTLLPEEKVLELYGRRVLIMHGDTLCTDDAGYQAFRAKVHKPWLQTLFLALPLFVRKRIAARMRANSKEANSSKSLAIMDVNQNAVVSAMEKHQVQWLIHGHTHRPAVHELIANQQPAFRVVLGAWHTEGSMVKVTADDVELIHFPF | 5.85 ± 1.3 | 5.94 ± 0.2 | 6.87 ± 0.8 |  | 5.781 ± 0.025 | 3.14 ± 0.045 |  | 13.1 ± 0.46 | 6.36 ± 0.95 | 12.4 ± 0.57 | 6.49 ± 0.51 | 12 ± 0.37 |
